Measurements from paper PMC4024478 (Protein expression and purification, 2014).

Columns and labels:
Assay in all cases: pull-down
[1] = biological target: PDZ2 Domain-HaloTag fusion protein (PSD-95 PDZ2) on HaloLink resin (Mus musculus, UniProt Q62108 155-249)
[2] = biological target: HaloTag-PDZ1+PDZ2 fusion protein (PSD-95 PDZ1-2) on HaloLink resin (Mus musculus, UniProt Q62108 61-249)
[3] = biological target: MBP fusion protein containing an N-terminal PDZ2 Tag (Mus musculus, UniProt Q62108 155-249)
MBP fusion protein containing an N-terminal PDZ2 Tag, sequence (Q62108 155-249): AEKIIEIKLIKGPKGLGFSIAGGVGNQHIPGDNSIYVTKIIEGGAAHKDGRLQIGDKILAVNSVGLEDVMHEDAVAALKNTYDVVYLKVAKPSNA

[4] = biological target: MBP fusion protein containing a C-terminal PDZ2 Tag (Mus musculus, UniProt Q62108 155-249)
MBP fusion protein containing a C-terminal PDZ2 Tag, sequence (Q62108 155-249): as above

[5] = biological target: MBP-GST fusion protein containing an internal PDZ2 Domain Tag (Mus musculus, UniProt Q62108 155-249)
MBP-GST fusion protein containing an internal PDZ2 Domain Tag, sequence (Q62108 155-249): as above

PDZ2 domain of PSD-95 = PDZ2 domain of PSD-95 (Mus musculus, UniProt Q62108 155-249)
PDZ2 domain of PSD-95, sequence (Q62108 155-249): as above

[6] = biological target: PDZ3 Domain-HaloTag fusion protein (PSD-95 PDZ3) on HaloLink resin (Mus musculus, UniProt Q62108 302-402)
PDZ3 Domain-HaloTag fusion protein (PSD-95 PDZ3) on HaloLink resin, sequence (Q62108 302-402): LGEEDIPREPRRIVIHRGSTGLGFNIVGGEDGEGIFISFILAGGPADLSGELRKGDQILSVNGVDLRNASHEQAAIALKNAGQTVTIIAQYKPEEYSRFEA

Measured: binding result

HaloTag-PDZ1+PDZ2 fusion protein (PSD-95 PDZ1-2) on HaloLink resin, sequence (Q62108 61-249): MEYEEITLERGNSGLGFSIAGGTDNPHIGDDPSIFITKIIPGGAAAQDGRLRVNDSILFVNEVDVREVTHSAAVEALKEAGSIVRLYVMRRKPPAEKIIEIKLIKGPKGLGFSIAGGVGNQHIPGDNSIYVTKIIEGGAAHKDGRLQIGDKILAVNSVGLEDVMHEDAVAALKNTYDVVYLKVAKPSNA
PDZ2 Domain-HaloTag fusion protein (PSD-95 PDZ2) on HaloLink resin, sequence (Q62108 155-249): as the sequence (Q62108 155-249) above

B1: SIESDV peptide (free GluN2B Peptide Ligand) (peptide)
peptide: SIESDV
not listed: [6]
binds: all other assays above

B2: YKQTSV peptide (peptide)
peptide: YKQTSV
binds: [6]
